Assay results published in patent US20180273635A1 (Zymeworks, published 2018).
Changes are numbered by the printed parent chain. Numbers in names are those of the source. Each block holds one binder with its values, some of them ahead of it.

Tests used:
[1] = molecular target: T1, Recombinant human HER2 (human, UniProt P04626 23-652); assay: SPR, pre-SEC; ratio to WT v10013
T1 construct: extracellular domain; analyte of the SPR assays; also called HER2 ECD; ECD2 of HER2
Procedure: (§1) The affinity towards HER2 ECD of the samples was measured by SPR on a Biacore T200 as follows. Between 2000 and 4000 RU of anti-human Fc injected at concentration between 5 and 10 μg/ml was immobilized on a CM5 chip using standard amine coupling. Antigen-binding constructs were captured on the anti-human Fc (injected at concentration at 0.51 microg/mL in PBST, 1 min at 10 microl/min) at response levels ranging from 120-270 RU. […] HER2 dilutions were analyzed in duplicates. Sensograms were fit globally to a 1: 1 Langmuir binding model, using the software provided with the Biacore T200. All experiments were conducted at 25° C.
(§2) The affinity of antigen-binding constructs in OA format was determined by SPR following protein A purification. […] Antigen-binding constructs in FSA format were purified by protein A affinity and SEC prior to assessment of affinity by SPR.

[2] = molecular target: T1, Recombinant human HER2; assay: SPR, variant captured on anti-human Fc, HER2 flowed, 25 C, pre-SEC
Procedure: as §1

[3] = molecular target: T1, Recombinant human HER2; assay: SPR, variant captured on anti-human Fc, HER2 flowed, 25 C, post-SEC
Procedure: as §1, §2

[4] = molecular target: T1, Recombinant human HER2; assay: SPR, post-SEC; ratio to WT v10013
Procedure: as §1, §2

[5] = molecular target: T2, Recombinant human HER2 (human, UniProt P04626 23-652); assay: SPR at 25 C, affinity against WT v10013
T2 construct: extracellular domain; also called HER2 ECD
Procedure: as §1

[6] = molecular target: T2, Recombinant human HER2; assay: SPR at 25 C, affinity against v10014 (itself, reference)
Procedure: as §1

[7] = molecular target: T3, HER2 expressed on the surface of cells (human, UniProt P04626 23-1255); assay: flow cytometry on BT474 cells, n=1
T3 construct: whole, on cells; also called ErbB2
Procedure: (§3) Binding of the test antigen-binding constructs to the surface of HER2+ cells was determined by flow cytometry. Cells were washed with PBS and resuspended in DMEM at 1×10⁵ cells/100 μl. 100 μl cell suspension was added into each microcentrifuge tube, followed by 10 μl/tube of the antigen-binding constructs. The tubes were incubated for 2 hr at 4° C. on a rotator. The microcentrifuge tubes were centrifuged for 2 min 2000 RPM at room temperature and the cell pellets washed with 500 μl media. Each cell pellet was resuspended in 100 μl of fluorochrome-labelled secondary antibody diluted in media to 2 μg/sample. The samples were then incubated for lhr at 4° C. on a rotator. After incubation, the cells were centrifuged for 2 min at 2000 rpm and washed in media. The cells were resuspended in 500 μl media, filtered, transferred to a tube containing 5 μl propidium iodide (PI) and analyzed on a BD LSR II flow cytometer according to the manufacturer's instructions. The B50 of the tested antigen-binding constructs was assessed by FACS with data analysis and curve fitting performed in GraphPad Prism. The experiment was carried out once (n=1) in SKBr3 cells, and twice (n=2) in SKOV3, MCF7, and BT-474 cells.
(§4) The experiment was performed once (n=1) in each cell line.

[8] = molecular target: T3, HER2 expressed on the surface of cells; assay: cell-based or functional assay
[9] = molecular target: T3, HER2 expressed on the surface of cells; assay: cell-based or functional assay; remark: listed apart in the source
[10] = molecular target: T3, HER2 expressed on the surface of cells; assay: cell-based or functional assay; remark: listed apart in the source
[11] = molecular target: T3, HER2 expressed on the surface of cells; assay: flow cytometry on BT474 cells, n=1; B50 = concentration at 50% of Bmax
Procedure: as §3, §4

[12] = molecular target: T3, HER2 expressed on the surface of cells; assay: cell-based or functional assay; remark: listed apart in the source
[13] = molecular target: T3, HER2 expressed on the surface of cells; assay: flow cytometry on MCF7 cells (low HER2), n=1
Procedure: as §3, §4

[14] = molecular target: T3, HER2 expressed on the surface of cells; assay: cell-based or functional assay; remark: listed apart in the source
[15] = molecular target: T3, HER2 expressed on the surface of cells; assay: flow cytometry on MCF7 cells (low HER2), n=1; B50 = concentration at 50% of Bmax
Procedure: as §3, §4

[16] = molecular target: T3, HER2 expressed on the surface of cells; assay: flow cytometry on SKBR3 cells, n=1
Procedure: as §3, §4

[17] = molecular target: T3, HER2 expressed on the surface of cells; assay: cell-based or functional assay; remark: listed apart in the source
[18] = molecular target: T3, HER2 expressed on the surface of cells; assay: cell-based or functional assay; remark: listed apart in the source
[19] = molecular target: T3, HER2 expressed on the surface of cells; assay: flow cytometry on SKBR3 cells, n=1; B50 = concentration at 50% of Bmax
Procedure: as §3, §4

[20] = molecular target: T4, Recombinant human HER2 (human, UniProt P04626 23-652); assay: SPR, Ka ratio to WT pertuzumab
T4 construct: extracellular domain; Analyte of the SPR assays; also called HER2 ECD; ECD2 of HER2
Procedure: as §1

[21] = molecular target: T4, Recombinant human HER2; assay: SPR as in Example 3, average of three independent runs
Procedure: as §1

[22] = molecular target: T1, Recombinant human HER2; assay: SPR, FSA captured on anti-human Fc, HER2 flowed, 25 C, after protein A and SEC

B2: Variant 10014 (pertuzumab T30A / Y96A, one-armed format) (antibody)
heavy: EVQLVESGGGLVQPGGSLRLSCAASGFTFADYTMDWVRQAPGKGLEWVADVNPNSGGSIYNQRFKGRFTLSVDRSKNTLYLQMNSLRAEDTAVYYCARNLGPSFYFDYWGQGTLVTVSSASTKGPSVFPLAPSSKSTSGGTAALGCLVKDYFPEPVTVSWNSGALTSGVHTFPAVLQSSGLYSLSSVVTVPSSSLGTQTYICNVNHKPSNTKVDKKVEPKSCDKTHTCPPCPAPELLGGPSVFLFPPKPKDTLMISRTPEVTCVVVDVSHEDPEVKFNWYVDGVEVHNAKTKPREEQYNSTYRVVSVLTVLHQDWLNGKEYKCKVSNKALPAPIEKTISKAKGQPREPQVYVYPPSRDELTKNQVSLTCLVKGFYPSDIAVEWESNGQPENNYKTTPPVLDSDGSFALVSKLTVDKSRWQQGNVFSCSVMHEALHNHYTQKSLSLSPG
light: not shown
Fc: not shown
notes: Monovalent one-armed (OA) antibody; also called v10014
Fold wrt WT [5]: 7 fold
Fold wrt v10014 [6]: 1 fold

B4: Variant 4435 (antibody, V domains shown)
VH: EVQLVESGGGLVQPGGSLRLSCAASGFTFTDYTMDWVRQAPGKGLEWVADVNPNSGASIYNQRFKGRFTLSVDRSKNTLYLQMNSLRAEDTAVYYCARNLGPSFYFDYWGQGTLVTVSS
VL: DIQMTQSPSSLSASVGDRVTITCKASQDVSIGVAWYQQKPGKAPKLLIYSASYRYTGVPSRFSGSGSGTDFTLTISSLQPEDFATYYCQQYYIYPYTFGQGTKVEIK
notes: also called literature pertuzumab variant
SPR Ka, mut/Ka, WT [20]: 0.9 fold
Kd [21]: 15 nM

B6: Variant 4434 (antibody, name in Kabat numbering, V domains shown)
VH: B4 VH with T30A, A57G
VL: B4 VL
notes: as for B4
SPR Ka, mut/Ka, WT [20]: 3.3 fold
Kd [21]: 4 nM

B7: Variant 4432 (antibody, name in Kabat numbering, V domains shown)
VH: B4 VH with A57G
VL: B4 VL with Y96A
notes: as for B4
SPR Ka, mut/Ka, WT [20]: 1.7 fold
Kd [21]: 7.7 nM

B8: Variant 4436 (antibody, name in Kabat numbering, V domains shown)
VH: B4 VH with A57G, F64V
VL: B4 VL
notes: as for B4
SPR Ka, mut/Ka, WT [20]: 2.4 fold
Kd [21]: 5.7 nM

B9: Variant 4431 (antibody, name in Kabat numbering, V domains shown)
VH: B4 VH with A57G
VL: B4 VL with I31A
notes: as for B4
SPR Ka, mut/Ka, WT [20]: 3.9 fold
Kd [21]: 5 nM

B10: Variant 4433 (antibody, name in Kabat numbering, V domains shown)
VH: B4 VH with A57G
VL: B4 VL with Y96F
notes: as for B4
SPR Ka, mut/Ka, WT [20]: 1.3 fold
Kd [21]: 10 nM

More lines, main results first:

Ka, mut/Ka, WT [1]: 1.8
Kd [2]: 11 nM
Kd [3]: 11 nM
Ka, mut/Ka, WT [4]: 1.8
B1: variant 12611 (antibody, human IgG1, kappa)
heavy: B2 heavy with A30T
light: not shown
chain: not shown
notes: OA pertuzumab variant, LC Y96A (Kabat); also called v12611

Bmax [7]: 23000 MFI
growth inhibition IC50 (potency), BT474 cells [8]: 0.31 nM
growth inhibition span ratio to WT, BT474 cells [8]: 2.5 fold
growth inhibition IC50 (potency), SKBR3 cells, 5 days [9]: 0.1 nM
growth inhibition IC50, BT474 cells + EGF, 6 days [10]: 0.3 nM
growth inhibition IC50, BT474 cells, 6 days [10]: 0.1 nM
B50 [11]: 3.1 nM
Bmax [13]: 570 MFI
growth inhibition IC50 (potency), NCI-N87 cells, 5 days [14]: 1.8 nM
increase in efficacy with respect to the WT, NCI-N87 cells [14]: 1.9 fold
increase in potency with respect to the WT, NCI-N87 cells [14]: 5.1 fold
B50 [15]: 1.2 nM
Bmax [16]: 27000 MFI
growth inhibition IC50 (potency), SKBR3 cells [17]: 0.12 nM
growth inhibition span ratio to WT, SKBR3 cells [17]: 1.3 fold
growth inhibition IC50 (potency), BT474 cells + EGF [18]: 1 nM
growth inhibition span ratio to WT, BT474 cells + EGF [18]: 1.5 fold
B50 [19]: 6.6 nM
B3: Variant 12471 (antibody, human IgG1, kappa, name in Kabat numbering, V domains shown)
VH: B4 VH with T30A, A49G, A57G, L70F
VL: DIQMTQSPSSLSASVGDRVTITCKASQDVSIGVAWYQQKPGKAPKLLIYSASYRYTGVPSRFSGSGSGTDFTLTISSLQPEDFATYYCQQYYIYPATFGQGTKVEIKR
notes: Kabat numbering; also called v12471; FSA version of v9996
growth inhibition span (percentage of cells killed), BT474 cells [8]: 26%
growth inhibition span (percentage of cells killed), MDA-MB-175 cells [12]: 75%
growth inhibition span (percentage of cells killed), NCI-N87 cells [14]: 32%
growth inhibition span (percentage of cells killed), SKBR3 cells [17]: 22%
growth inhibition span (percentage of cells killed), BT474 cells + EGF [18]: 27%

Kd [22]: 1.8 nM
B5: variant 12471 (antibody, human IgG1, kappa, name in Kabat numbering, V domains shown)
VH: B4 VH with T30A, A49G, A57G, L70F
VL: B3 VL
notes: FSA, bivalent, wild type Fc; also called v12471; FSA version of v9996
